Source: US20120064176A1, “COMPOSITION FOR PREVENTING AND TREATING FATTY LIVER” (National Chung Hsing University, priority 2008, published 2012)

Test system: C57BL/6JNarl mice
Assay: Hepatic triglycerides after 7 weeks of lactoferrin, chromium or lactoferrin+chromium in high-fat-diet mice
Type: in vivo
Conditions: 10 mice in each group
Protocol: Male C57BL/6JNarl mice (n=70) fed with high fat diet (high-fat Rodent TestDiet, PMI International Inc., MO, USA; 67% of calories provided by fat), age 8 weeks, are randomly divided into the control group, the low-dose lactoferrin group (NZMP lactoferrin, New Zealand, 40 mg/kg BW/day), the high-dose lactoferrin group (80 mg/kg BW/day), the low-dose chromium group (CrCl3·6H2O, Sigma, Cr^+3 40 μg/kg BW/day), the high dose chromium group (Cr^+3 80 μg/kg BW/day), the low-dose lactoferrin+chromium group (lactoferrin 40 mg/kg BW/day+Cr^+3 40 μg/kg BW/day), and the high-dose lactoferrin+chromium group (lactoferrin 80 mg/kg BW/day+Cr^+3 80 μg/kg BW/day) (10 mice in each group). After supplementation for 7 weeks, the C57BL/6JNarl mice are sacrificed and their livers are harvested. Then, the level of hepatic triglycerides is analyzed. […] However, no significant difference between the other groups is found.

B1: Lactoferrin: NZMP lactoferrin, New Zealand; a glycoprotein that is capable of combining with metal ions (protein, UniProt P24627 20-708, looked up)
Lactotransferrin: APRKNVRWCTISQPEWFKCRRWQWRMKKLGAPSITCVRRAFALECIRAIAEKKADAVTLDGGMVFEAGRDPYKLRPVAAEIYGTKESPQTHYYAVAVVKKGSNFQLDQLQGRKSCHTGLGRSAGWIIPMGILRPYLSWTESLEPLQGAVAKFFSASCVPCIDRQAYPNLCQLCKGEGENQCACSSREPYFGYSGAFKCLQDGAGDVAFVKETTVFENLPEKADRDQYELLCLNNSRAPVDAFKECHLAQVPSHAVVARSVDGKEDLIWKLLSKAQEKFGKNKSRSFQLFGSPPGQRDLLFKDSALGFLRIPSKVDSALYLGSRYLTTLKNLRETAEEVKARYTRVVWCAVGPEEQKKCQQWSQQSGQNVTCATASTTDDCIVLVLKGEADALNLDGGYIYTAGKCGLVPVLAENRKSSKHSSLDCVLRPTEGYLAVAVVKKANEGLTWNSLKDKKSCHTAVDRTAGWNIPMGLIVNQTGSCAFDEFFSQSCAPGADPKSRLCALCAGDDQGLDKCVPNSKEKYYGYTGAFRCLAEDVGDVAFVKNDTVWENTNGESTADWAKNLNREDFRLLCLDGTRKPVTEAQSCHLAVAPNHAVVSRSDRAAHVKQVLLHQQALFGKNGKNCPDKFCLFKSETKNLLFNDNTECLAKLGGRPTYEEYLGTEYVTAIANLKKCSTSPLLEACAFLTR
Hepatic triglycerides, High-dose (High-dose: lactoferrin 80 mg/kg BW/day and/or Cr+3 80 μg/kg BW/day): 18.1 ± 7.2 μ mol/g liver | Hepatic triglycerides, Low-dose (Low-dose: lactoferrin 40 mg/kg BW/day and/or Cr+3 40 μg/kg BW/day): 18.4 ± 6.0 μ mol/g liver
